Assay results: paper PMC12239564

Assays:
[1] = molecular target: P. aeruginosa RloA2 (PA0462), residues 18-169 (P. aeruginosa); experiment: SEC-MALS; 5 mg/mL (289 µM) protein on Superdex 200 Increase 10/300 in 25 mM Tris-HCl pH 7.5, 300 mM NaCl, 0.7 mL/min
[2] = molecular target: P. fluorescens RloA (Pfl01_1762), residues 20-178 (P. fluorescens); experiment: as above

stoichiometry N [2] | Substance | stoichiometry N [1]
– | P. aeruginosa RloA2 (PA0462), residues 18-169 (enzyme) | 2
2 | P. fluorescens RloA (Pfl01_1762), residues 20-178 (enzyme) | –
